{
  "source": "paper PMC7335425",
  "about": "(Cell, 2020)",
  "data": [
    {"target": "the molecule itself", "assay": "negative stain EM", "values": [
      {"protein": "LetB L243N, TM helix deleted (domain or fragment, E. coli, UniProt P76272 43-877, looked up) QDRGNTVTIDFMSADGIVPGRTPVRYQGVEVGTVQDISLSDDLRKIEVKVSIKSDMKDALREETQFWLVTPKASLAGVSGLDALVGGNYIGMMPGKGKEQDHFVALDTQPKYRLDNGDLMIHLQAPDLGSLNSGSLVYFRKIPVGKVYDYAINPNKQGVVIDVLIERRFTDLVKKGSRFWNVSGVDANVSISGAKVKLESNAALVNGAIAFDSPEESKPAEAEDTFGLYEDLAHSQRGVIIKLELPSGAGLTADSTPLMYQGLEVGQLTKLDLNPGGKVTGEMTVDPSVVTLLRENTRIELRNPKLSLSDANLSALLTGKTFELVPGDGEPRKEFVVVPGEKALLHEPDVLTLTLTAPESYGIDAGQPLILHGVQVGQVIDRKLTSKGVTFTVAIEPQHRELVKGDSKFVVNSRVDVKVGLDGVEFLGASASEWINGGIRILPGDKGEMKASYPLYANLEKALENSLSDLPTTTVSLSAETLPDVQAGSVVLYRKFEVGEVITVRPRANAFDIDLHIKPEYRNLLTSNSVFWAEGGAKVQLNGSGLTVQASPLSRALKGAISFDNLSGASASQRKGDKRILYASETAARAVGGQITLHAFDAGKLAVGMPIRYLGIDIGQIQTLDLITARNEVQAKAVLYPEYVQTFARGGTRFSVVTPQISAAGVEHLDTILQPYINVEPGRGNPRRDFELQEATITDSRYLDGLSIIVEAPEAGSLGIGTPVLFRGLEVGTVTGMTLGTLSDRVMIAMRISKRYQHLVRNNSVFWLASGYSLDFGLTGGVVKTGTFNQFIRGGIAFATPPGTPLAPKAQEGKHFLLQESEPKEWREWGTALPK", "stoichiometry N": 6},
      {"protein": "LetB V247N, TM helix deleted (domain or fragment, E. coli, UniProt P76272 43-877, looked up) QDRGNTVTIDFMSADGIVPGRTPVRYQGVEVGTVQDISLSDDLRKIEVKVSIKSDMKDALREETQFWLVTPKASLAGVSGLDALVGGNYIGMMPGKGKEQDHFVALDTQPKYRLDNGDLMIHLQAPDLGSLNSGSLVYFRKIPVGKVYDYAINPNKQGVVIDVLIERRFTDLVKKGSRFWNVSGVDANVSISGAKVKLESLAALNNGAIAFDSPEESKPAEAEDTFGLYEDLAHSQRGVIIKLELPSGAGLTADSTPLMYQGLEVGQLTKLDLNPGGKVTGEMTVDPSVVTLLRENTRIELRNPKLSLSDANLSALLTGKTFELVPGDGEPRKEFVVVPGEKALLHEPDVLTLTLTAPESYGIDAGQPLILHGVQVGQVIDRKLTSKGVTFTVAIEPQHRELVKGDSKFVVNSRVDVKVGLDGVEFLGASASEWINGGIRILPGDKGEMKASYPLYANLEKALENSLSDLPTTTVSLSAETLPDVQAGSVVLYRKFEVGEVITVRPRANAFDIDLHIKPEYRNLLTSNSVFWAEGGAKVQLNGSGLTVQASPLSRALKGAISFDNLSGASASQRKGDKRILYASETAARAVGGQITLHAFDAGKLAVGMPIRYLGIDIGQIQTLDLITARNEVQAKAVLYPEYVQTFARGGTRFSVVTPQISAAGVEHLDTILQPYINVEPGRGNPRRDFELQEATITDSRYLDGLSIIVEAPEAGSLGIGTPVLFRGLEVGTVTGMTLGTLSDRVMIAMRISKRYQHLVRNNSVFWLASGYSLDFGLTGGVVKTGTFNQFIRGGIAFATPPGTPLAPKAQEGKHFLLQESEPKEWREWGTALPK", "stoichiometry N": 6},
      {"protein": "LetB L358N, TM helix deleted (domain or fragment, E. coli, UniProt P76272 43-877, looked up) QDRGNTVTIDFMSADGIVPGRTPVRYQGVEVGTVQDISLSDDLRKIEVKVSIKSDMKDALREETQFWLVTPKASLAGVSGLDALVGGNYIGMMPGKGKEQDHFVALDTQPKYRLDNGDLMIHLQAPDLGSLNSGSLVYFRKIPVGKVYDYAINPNKQGVVIDVLIERRFTDLVKKGSRFWNVSGVDANVSISGAKVKLESLAALVNGAIAFDSPEESKPAEAEDTFGLYEDLAHSQRGVIIKLELPSGAGLTADSTPLMYQGLEVGQLTKLDLNPGGKVTGEMTVDPSVVTLLRENTRIELRNPKLSLSDANLSANLTGKTFELVPGDGEPRKEFVVVPGEKALLHEPDVLTLTLTAPESYGIDAGQPLILHGVQVGQVIDRKLTSKGVTFTVAIEPQHRELVKGDSKFVVNSRVDVKVGLDGVEFLGASASEWINGGIRILPGDKGEMKASYPLYANLEKALENSLSDLPTTTVSLSAETLPDVQAGSVVLYRKFEVGEVITVRPRANAFDIDLHIKPEYRNLLTSNSVFWAEGGAKVQLNGSGLTVQASPLSRALKGAISFDNLSGASASQRKGDKRILYASETAARAVGGQITLHAFDAGKLAVGMPIRYLGIDIGQIQTLDLITARNEVQAKAVLYPEYVQTFARGGTRFSVVTPQISAAGVEHLDTILQPYINVEPGRGNPRRDFELQEATITDSRYLDGLSIIVEAPEAGSLGIGTPVLFRGLEVGTVTGMTLGTLSDRVMIAMRISKRYQHLVRNNSVFWLASGYSLDFGLTGGVVKTGTFNQFIRGGIAFATPPGTPLAPKAQEGKHFLLQESEPKEWREWGTALPK", "stoichiometry N": 6},
      {"protein": "LetB L246N, TM helix deleted (domain or fragment, E. coli, UniProt P76272 43-877, looked up) QDRGNTVTIDFMSADGIVPGRTPVRYQGVEVGTVQDISLSDDLRKIEVKVSIKSDMKDALREETQFWLVTPKASLAGVSGLDALVGGNYIGMMPGKGKEQDHFVALDTQPKYRLDNGDLMIHLQAPDLGSLNSGSLVYFRKIPVGKVYDYAINPNKQGVVIDVLIERRFTDLVKKGSRFWNVSGVDANVSISGAKVKLESLAANVNGAIAFDSPEESKPAEAEDTFGLYEDLAHSQRGVIIKLELPSGAGLTADSTPLMYQGLEVGQLTKLDLNPGGKVTGEMTVDPSVVTLLRENTRIELRNPKLSLSDANLSALLTGKTFELVPGDGEPRKEFVVVPGEKALLHEPDVLTLTLTAPESYGIDAGQPLILHGVQVGQVIDRKLTSKGVTFTVAIEPQHRELVKGDSKFVVNSRVDVKVGLDGVEFLGASASEWINGGIRILPGDKGEMKASYPLYANLEKALENSLSDLPTTTVSLSAETLPDVQAGSVVLYRKFEVGEVITVRPRANAFDIDLHIKPEYRNLLTSNSVFWAEGGAKVQLNGSGLTVQASPLSRALKGAISFDNLSGASASQRKGDKRILYASETAARAVGGQITLHAFDAGKLAVGMPIRYLGIDIGQIQTLDLITARNEVQAKAVLYPEYVQTFARGGTRFSVVTPQISAAGVEHLDTILQPYINVEPGRGNPRRDFELQEATITDSRYLDGLSIIVEAPEAGSLGIGTPVLFRGLEVGTVTGMTLGTLSDRVMIAMRISKRYQHLVRNNSVFWLASGYSLDFGLTGGVVKTGTFNQFIRGGIAFATPPGTPLAPKAQEGKHFLLQESEPKEWREWGTALPK", "stoichiometry N": 6},
      {"protein": "LetB L355N, TM helix deleted (domain or fragment, E. coli, UniProt P76272 43-877, looked up) QDRGNTVTIDFMSADGIVPGRTPVRYQGVEVGTVQDISLSDDLRKIEVKVSIKSDMKDALREETQFWLVTPKASLAGVSGLDALVGGNYIGMMPGKGKEQDHFVALDTQPKYRLDNGDLMIHLQAPDLGSLNSGSLVYFRKIPVGKVYDYAINPNKQGVVIDVLIERRFTDLVKKGSRFWNVSGVDANVSISGAKVKLESLAALVNGAIAFDSPEESKPAEAEDTFGLYEDLAHSQRGVIIKLELPSGAGLTADSTPLMYQGLEVGQLTKLDLNPGGKVTGEMTVDPSVVTLLRENTRIELRNPKLSLSDANNSALLTGKTFELVPGDGEPRKEFVVVPGEKALLHEPDVLTLTLTAPESYGIDAGQPLILHGVQVGQVIDRKLTSKGVTFTVAIEPQHRELVKGDSKFVVNSRVDVKVGLDGVEFLGASASEWINGGIRILPGDKGEMKASYPLYANLEKALENSLSDLPTTTVSLSAETLPDVQAGSVVLYRKFEVGEVITVRPRANAFDIDLHIKPEYRNLLTSNSVFWAEGGAKVQLNGSGLTVQASPLSRALKGAISFDNLSGASASQRKGDKRILYASETAARAVGGQITLHAFDAGKLAVGMPIRYLGIDIGQIQTLDLITARNEVQAKAVLYPEYVQTFARGGTRFSVVTPQISAAGVEHLDTILQPYINVEPGRGNPRRDFELQEATITDSRYLDGLSIIVEAPEAGSLGIGTPVLFRGLEVGTVTGMTLGTLSDRVMIAMRISKRYQHLVRNNSVFWLASGYSLDFGLTGGVVKTGTFNQFIRGGIAFATPPGTPLAPKAQEGKHFLLQESEPKEWREWGTALPK", "stoichiometry N": 6},
      {"protein": "LetB four-ring mutant 1–3-4–7, TM helix deleted (domain or fragment) QDRGNTVTIDFMSADGIVPGRTPVRYQGVEVGTVQDISLSDDLRKIEVKVSIKSDMKDALREETQFWLVTPKASLAGVSGLDALVGGNYIGMMPGKGKEQDHFVALDTQPKYRLDNGRGVIIKLELPSGAGLTADSTPLMYQGLEVGQLTKLDLNPGGKVTGEMTVDPSVVTLLRENTRIELRNPKLSLSDANLSALLTGKTFELVPGDGEPRKEFVVVPGEKALLHEPDVLTLTLTAPESYGIDAGQPLILHGVQVGQVIDRKLTSKGVTFTVAIEPQHRELVKGDSKFVVNSRVDVKVGLDGVEFLGASASEWINGGIRILPGDKGEMKASYPLYANLEKALENSLSDLPTDGLSIIVEAPEAGSLGIGTPVLFRGLEVGTVTGMTLGTLSDRVMIAMRISKRYQHLVRNNSVFWLASGYSLDFGLTGGVVKTGTFNQFIRGGIAFATPPGTPLAPKAQEGKHFLLQESEPKEWREWGTALPK", "stoichiometry N": 6},
      {"protein": "LetB three-ring truncation mutant (rings 2, 3, 4 and 5 removed), TM helix deleted (domain or fragment) QDRGNTVTIDFMSADGIVPGRTPVRYQGVEVGTVQDISLSDDLRKIEVKVSIKSDMKDALREETQFWLVTPKASLAGVSGLDALVGGNYIGMMPGKGKEQDHFVALDTQPKYRLDNGGGQITLHAFDAGKLAVGMPIRYLGIDIGQIQTLDLITARNEVQAKAVLYPEYVQTFARGGTRFSVVTPQISAAGVEHLDTILQPYINVEPGRGNPRRDFELQEATITDSRYLDGLSIIVEAPEAGSLGIGTPVLFRGLEVGTVTGMTLGTLSDRVMIAMRISKRYQHLVRNNSVFWLASGYSLDFGLTGGVVKTGTFNQFIRGGIAFATPPGTPLAPKAQEGKHFLLQESEPKEWREWGTALPK", "stoichiometry N": 6},
      {"protein": "LetB two-ring truncation mutant, TM helix deleted (domain or fragment) QDRGNTVTIDFMSADGIVPGRTPVRYQGVEVGTVQDISLSDDLRKIEVKVSIKSDMKDALREETQFWLVTPKASLAGVSGLDALVGGNYIGMMPGKGKEQDHFVALDTQPKYRLDNGDGLSIIVEAPEAGSLGIGTPVLFRGLEVGTVTGMTLGTLSDRVMIAMRISKRYQHLVRNNSVFWLASGYSLDFGLTGGVVKTGTFNQFIRGGIAFATPPGTPLAPKAQEGKHFLLQESEPKEWREWGTALPK", "stoichiometry N": 6}
    ]}
  ]
}
